The target of assay [1] is AKAP 150 (rat A-kinase anchor protein) (rat) (UniProt P24587). Put plainly: cell-based or functional assay.
For assay [2], the target named is IL-6 (human, in degenerative IVD conditioned media) (human) (UniProt P05231). In words: cell-based or functional assay.

Experimental findings from patent US20210380975A1 are described below.

UniProt P24587, sequence (P24587 whole entry): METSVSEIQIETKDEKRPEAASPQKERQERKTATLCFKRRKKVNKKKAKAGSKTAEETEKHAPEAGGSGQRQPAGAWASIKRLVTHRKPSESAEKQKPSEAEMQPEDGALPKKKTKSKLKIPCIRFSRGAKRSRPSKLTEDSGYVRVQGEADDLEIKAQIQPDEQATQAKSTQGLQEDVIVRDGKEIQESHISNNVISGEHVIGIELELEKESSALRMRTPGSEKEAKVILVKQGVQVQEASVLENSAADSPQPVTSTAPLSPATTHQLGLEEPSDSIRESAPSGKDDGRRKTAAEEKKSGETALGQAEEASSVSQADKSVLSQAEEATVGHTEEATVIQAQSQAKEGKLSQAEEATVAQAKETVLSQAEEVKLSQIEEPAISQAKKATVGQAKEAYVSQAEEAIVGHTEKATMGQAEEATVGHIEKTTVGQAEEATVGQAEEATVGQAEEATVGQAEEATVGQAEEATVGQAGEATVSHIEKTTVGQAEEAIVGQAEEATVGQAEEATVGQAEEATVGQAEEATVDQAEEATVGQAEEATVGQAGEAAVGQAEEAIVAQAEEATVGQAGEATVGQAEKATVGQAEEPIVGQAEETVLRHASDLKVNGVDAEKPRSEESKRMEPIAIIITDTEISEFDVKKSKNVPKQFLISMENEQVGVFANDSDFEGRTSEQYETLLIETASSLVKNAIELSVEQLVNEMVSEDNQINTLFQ
UniProt P05231, sequence (P05231 30-212 limits assumed): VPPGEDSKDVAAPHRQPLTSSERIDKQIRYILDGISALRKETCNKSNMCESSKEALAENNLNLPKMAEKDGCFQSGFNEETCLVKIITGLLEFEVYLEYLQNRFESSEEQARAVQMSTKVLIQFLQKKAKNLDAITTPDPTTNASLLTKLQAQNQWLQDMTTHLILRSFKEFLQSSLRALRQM

For “AKAP inhibitor peptide St-Ht31 (Promega)”, the percentage of rat DRG neurons firing at 39° C. in degenerative IVD conditioned media in assay [1] was 15.5%.

With Control peptide St-Ht31P (Promega), the percentage of rat DRG neurons firing at 39° C. in degenerative IVD conditioned media in assay [1] came out at 61.9%.

In assay [2], “Mouse isotype control antibody (Life Technologies)” yielded a maximum firing response of DRG neurons (Boltzmann fit) of 66%.
